The values below come from article PMC4846058.

The target in test [1] is cynomolgus monkey IL-17A (Macaca fascicularis). The experiment in a line: SPR. (In general: SPR reads the build-up and loss of mass on a sensor chip optically.)
The next test concerns the target ixekizumab (human). The experiment in a line: SPR.

Turning to ixekizumab (antibody), the dissociation constant Kd – broadly, the concentration at which binding is half-saturated – in test [1] worked out at 0.0008 nM.

As for rabbit IL-17A (ligand), in the test with ixekizumab (human), the KD, heterogeneous ligand model, first set stood at 1.3 nM; the KD, heterogeneous ligand model, second set turned out to be 14 nM; the koff, heterogeneous ligand model, first set was found to be 0.00017 s⁻¹; the koff, heterogeneous ligand model, second set was 0.11 s⁻¹. Also, the kon, heterogeneous ligand model, first set with ixekizumab (human) was 150000 M⁻¹ s⁻¹.
